From the RNAGym collection of RNA variant scans (doi:10.7554/elife.80360) come the findings set out here.

First the molecules themselves.
B1: HDV Ribozyme (parent)
chain: GGCCGGCAUGGUCCCAGCCUCCUCGCUGGCGCCGGCUGGGCAACAUUCCGAGGGGACCGUCCCCUCGGUAAUGGCGAAUGGGACCCA

In this data set the parent is B1. Nature of the data set: self-cleavage, relative activity (ratio to wild type); higher = more cleavage; co-transcriptional.
GGCCGGCCUGGUCCCAGCCUCCUCGCUGGCGCCGGCUGGGCAACAUUCCGAGGGGACCGUCCCCUCGGUAAUGGCGAAUGGGCCCCA: the self-cleavage worked out at 0.317.
Then GGCCGGCAUGGUCCCAGCCUCCUCGCUGGCGCCGGCUGGGCAACAUUUCGAGGGGACCGUCCCCUCGGUAAUGGCGAAUGGGACUCA, with 1.14.
On to GGACGGCAUGGUCCCAGCCUCCUCGCUGGCGCCGGCUGGGCAACAUUCCGAGGGGACCGUCCCCUCGGUAAUGGCGAAUCGGACCCA, for which the self-cleavage amounted to 0.111.
The figure for GGCCGGCAUGGUCACAGCCUCCUCGCUGGCGCCGGCUGGGCAACAUUCCCAGGGGACCGUCCCCUCGGUAAUGGCGAAUGGGACCCA is 0.639; for GGCCGGCAUGGUCCCAGCCUCCUCGAUGGCGCCGGCUGGGCAACAUUCCGAGGGGAUCGUCCCCUCGGUAAUGGCGAAUGGGACCCA it is 0.959.
The figure for GGCCGGCAUGGUCCCAGCCUCCUCGCUGGCGCCGGCUGGGCAACAAUCCGAGGAGACCGUCCCCUCGGUAAUGGCGAAUGGGACCCA is 0.763; for GGCCGGCAUGUCCCCAGCCUCCUCGCUGGCGCCGGCUGGGCAACAUUCCGAGGGGACCGUCCCCUCGGUAAUGGCGAAUGGGACCCA it is 0.125.
The figure for GGCCGGCAUGGUCCCAGCCUCCUCGCUGGCGGCGGCUGGGCAACAUUCCGAGGGGACCGUCCCCUCGGUAAUGGCGAAUGGGACACA is 0.0378.
For the variant GGCCGGCGUGGUCCCAGCCUCCUCGCUGGCGCCGGCUGGGCAACAUUCCGAAGGGACCGUCCCCUCGGUAAUGGCGAAUGGGACCCA, the self-cleavage stood at 0.719.
The figure for GGCCGGCAUGGUCCUAGCCUCCUCGCUGGCGCCUGCUGGGCAACAUUCCGAGGGGACCGUCCCCUCGGUAAUGGCGAAUGGGACCCA is 0.293.
Regarding GGCCGGCAUGGUCCCAGCCUCCUCGCUGGCGCCGGCUGGGCAACAUUCCGAGGGAACCGUCCCCUCGGUAAUCGCGAAUGGGACCCA, the self-cleavage came to 0.658.
Then GGCCGGCAUGGUCCCAGCCUCCCCGCUGGCGCCGGCUGGGCAACAUCCCGAGGGGACCGUCCCCUCGGUAAUGGCGAAUGGGACCCA, with 1.04; and GGCCGGCAUGGUCCCAGCCUCCUCGCAGGCGCCGGCUGGGCAACAUUCCGAGGGGACCGUCCCCUCGGUCAUGGCGAAUGGGACCCA, with 0.782.
The figure for GCCCGGCAUGGUCCCAUCCUCCUCGCUGGCGCCGGCUGGGCAACAUUCCGAGGGGACCGUCCCCUCGGUAAUGGCGAAUGGGACCCA is 0.0784.
The figure for GGCCGGCAUGGUCCCGGCCUCCUCGCUGGCGCCGGCUGGGCAACAUUCCGAGGGGACCGUCCCCUCGGUAAUGGCGAAUGGGACCCU is 0.939; for GGCCGGCAUGGUCCCAGCCUCCUCACUGGCGCCGGCUGGGCAACAUUCCGAGGGGACCGUCGCCUCGGUAAUGGCGAAUGGGACCCA it is 0.151.
Turning to GGCCGGCAUGGCCCCAGCCUCCUCGCUGGCGCCGGCUGGGCAACAUUCCGAGGCGACCGUCCCCUCGGUAAUGGCGAAUGGGACCCA, the self-cleavage came to 0.356.
The figure for GGCCUGCAUGGUCCCAGCCUCCUCGCUGGCGCCGGCUGGGCAACAUUCCGAGGGGACCGUCCCCUCGGUAAUGGCGAAGGGGACCCA is 0; for GGCCGGCAUGGUCCCAGCCUCCUCGCUGGCGCCGGCUGGGCAACAUUCCGAGGGGACCGUCCCCUCGGUAAUGGCUAAUGGGUCCCA it is 0.481.
As for GGCCGGCAUGGUCCCAGCCUCCUCGCUGGCGCCGGCUGGGCAACAUUCCGUGGGGACCGUCCCCUCGGUAAUGGCGAAUGAGACCCA, the self-cleavage was determined as 0.601.
The figure for GGCCGGCAUGGCCCCAGCCUCCUCGCUGGCGCCGGCUGGCCAACAUUCCGAGGGGACCGUCCCCUCGGUAAUGGCGAAUGGGACCCA is 0.0405; for GGCCGGCAUGGUCCUAGCCUCCUCGAUGGCGCCGGCUGGGCAACAUUCCGAGGGGACCGUCCCCUCGGUAAUGGCGAAUGGGACCCA it is 1.05; for GGCCGGUAUGGUCCCAGGCUCCUCGCUGGCGCCGGCUGGGCAACAUUCCGAGGGGACCGUCCCCUCGGUAAUGGCGAAUGGGACCCA it is 0.0639.
Then GGCCGGCAUGGUCCCAGCCUCCUCGCUGGCGCCGGCUGGGCAACAUUCCGAGGGGCCCGUCCCCUCGGUAAUGGCGAAUGGGAGCCA, with 0.755; and GGCCGGCAUGGUCCCAGCCUCCUCGCUGGAGCCGGCUGGGCAACAUUCCGAGGGGACCCUCCCCUCGGUAAUGGCGAAUGGGACCCA, with 0.58; and GGCCGGCAUGGUCCCAGCUUCCUCGCUGGCGCCGGCUGGGCAACGUUCCGAGGGGACCGUCCCCUCGGUAAUGGCGAAUGGGACCCA, with 0.111.
On to GGCCGGCAUGGUCCCAGCCUCCUCGCUGGCGCCGGCUGGGCUACAUUCCGAGGGGACCGUCCCCUCGGAAAUGGCGAAUGGGACCCA, for which the self-cleavage is 0.364.
Then GGCCGGCAUGGUCCCAGCCUCCUCCCUGGCGCCGGCUGGGCAACAUUCCGAGGGGACCGUCGCCUCGGUAAUGGCGAAUGGGACCCA, with 0.0615.
On to GGCCGGCAUGGUCCCAGCCUCCUCGCUGGCGCCGGCUGGGCAACAUUGCGAGGGGACCGUCCCCUCGGUAAUGGCGAAUGGGACCCG, for which the self-cleavage turned out to be 0.975.
Then GGCCGGCAUGGUCCCAGCCUCCUCGCUGGCGCCGGCUGGGCAACAUUCCGAAGGGACCGUCACCUCGGUAAUGGCGAAUGGGACCCA, with 0.732.
Then GGCCGGCAUGGUCCCAGCCUCCUCGCUGGCGCCGGCUAGGCAACAUUCCGAGGGGACCGUCCCCUCGGUAAUGGCGAAUGGGAGCCA, with 0.257; and GGCCGGCAUGGUCCCAGCCUCCUCGCUGGCGCUGGCUGGGCAACAUUCCGAGGGGACCGUCCACUCGGUAAUGGCGAAUGGGACCCA, with 0.716.
